Test system: HEK293FT cells transfected with TF library
Assay: Screening of TF condensates based on fluorescent puncta
Type: cell-based
Conditions: Figure 1B numerical data; TF library screen, one value per transcriptional factor
In short: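 TF plasmids (final 1.6 μg/ml) reverse-transfected with PEI (4.8 μg/ml) into HEK293FT cells; after 60 h, cells cultured ±glucose for 12 h, fixed in 4% PFA and immunostained for Flag or GAL4 tags with Alexa 488 secondaries. Puncta scored by automated imaging of 50 random fields per well.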

Molecule | Z score of condensed fraction
RFX4 (protein, UniProt Q33E94 1-735, looked up) Transcription factor RFX4: MHCGLLEEPDMDSTESWIERCLNESENKRYSSHTSLGNVSNDENEEKENNRASKPHSTPATLQWLEENYEIAEGVCIPRSALYMHYLDFCEKNDTQPVNAASFGKIIRQQFPQLTTRRLGTRGQSKYHYYGIAVKESSQYYDVMYSKKGAAWVSETGKKEVSKQTVAYSPRSKLGTLLPEFPNVKDLNLPASLPEEKVSTFIMMYRTHCQRILDTVIRANFDEVQSFLLHFWQGMPPHMLPVLGSSTVVNIVGVCDSILYKAISGVLMPTVLQALPDSLTQVIRKFAKQLDEWLKVALHDLPENLRNIKFELSRRFSQILRRQTSLNHLCQASRTVIHSADITFQMLEDWRNVDLNSITKQTLYTMEDSRDEHRKLITQLYQEFDHLLEEQSPIESYIEWLDTMVDRCVVKVAAKRQGSLKKVAQQFLLMWSCFGTRVIRDMTLHSAPSFGSFHLIHLMFDDYVLYLLESLHCQERANELMRAMKGEGSTAEVREEIILTEAAAPTPSPVPSFSPAKSATSVEVPPPSSPVSNPSPEYTGLSTTGAMQSYTWSLTYTVTTAAGSPAENSQQLPCMRNTHVPSSSVTHRIPVYPHREEHGYTGSYNYGSYGNQHPHPMQSQYPALPHDTAISGPLHYAPYHRSSAQYPFNSPTSRMEPCLMSSTPRLHPTPVTPRWPEVPSANTCYTSPSVHSARYGNSSDMYTPLTTRRNSEYEHMQHFPGFAYINGEASTGWAK | -0.3239
RHOXF1 (protein, UniProt Q8NHV9 1-184, looked up) Rhox homeobox family member 1: MARSLVHDTVFYCLSVYQVKISPTPQLGAASSAEGHVGQGAPGLMGNMNPEGGVNHENGMNRDGGMIPEGGGGNQEPRQQPQPPPEEPAQAAMEGPQPENMQPRTRRTKFTLLQVEELESVFRHTQYPDVPTRRELAENLGVTEDKVRVWFKNKRARCRRHQRELMLANELRADPDDCVYIVVD | -0.9364
RFXDC1 (protein, UniProt Q8HWS3 1-928, looked up) DNA-binding protein RFX6: MAKVPELEDTFLQAQPAPQLSPGIQEDCCVQLLGKGLLVYPEETVYLAAEGQPGGEQGGGEKGEDPELPGAVKSEMHLNNGNFSSEEEDADNHDSKTKAADQYLSQKKTITQIVKDKKKQTQLTLQWLEENYIVCEGVCLPRCILYAHYLDFCRKEKLEPACAATFGKTIRQKFPLLTTRRLGTRGHSKYHYYGIGIKESSAYYHSVYSGKGLTRFSGSKLKNEGGFTRKYSLSSKTGTLLPEFPSAQHLVYQGCISKDKVDTLIMMYKTHCQCILDNAINGNFEEIQHFLLHFWQGMPDHLLPLLENPVIIDIFCVCDSILYKVLTDVLIPATMQEMPESLLADIRNFAKNWEQWVVSSLENLPEALTDKKIPIVRRFVSSLKRQTSFLHLAQIARPALFDQHVVNSMVSDIERVDLNSIGSQALLTISGSTDTESGIYTEHDSITVFQELKDLLKKNATVEAFIEWLDTVVEQRVIKTSKQNGRSLKKRAQDFLLKWSFFGARVMHNLTLNNASSFGSFHLIRMLLDEYILLAMETQFNNDKEQELQNLLDKYMKNSDASKAAFTASPSSCFLANRNKGSMVSSDAVKNESHVETTYLPLPSSQPGGLGPALHQFPAGNTDNMPLTGQMELSQIAGHLMTPPISPAMASRGSVINQGPMAGRPPSVGPVLSAPSHCSTYPEPIYPTLPQANHDFYSTSSNYQTVFRAQPHSTSGLYPHHTEHGRCMAWTEQQLSRDFFSGSCAGSPYNSRPPSSYGPSLQAQDSHNMQFLNTGSFNFLSNTGAASCQGATLPPNSPNGYYGSNINYPESHRLGSMVNQHVSVISSIRSLPPYSDIHDPLNILDDSGRKQTSSFYTDTSSPVACRTPVLASSLQTPIPSSSSQCMYGTSNQYPAQETLDSHGTSSREMVSSLPPINTVFMGTAAGGT | 3.216
BATF2 (protein, UniProt Q8N1L9 1-274, looked up) Basic leucine zipper …: MHLCGGNGLLTQTDPKEQQRQLKKQKNRAAAQRSRQKHTDKADALHQQHESLEKDNLALRKEIQSLQAELAWWSRTLHVHERLCPMDCASCSAPGLLGCWDQAEGLLGPGPQGQHGCREQLELFQTPGSCYPAQPLSPGPQPHDSPSLLQCPLPSLSLGPAVVAEPPVQLSPSPLLFASHTGSSLQGSSSKLSALQPSLTAQTAPPQPLELEHPTRGKLGSSPDNPSSALGLARLQSREHKPALSAATWQGLVVDPSPHPLLAFPLLSSAQVHF | -1.083
RBM14 (protein, UniProt Q96PK6 1-669, looked up) RNA-binding protein 14: MKIFVGNVDGADTTPEELAALFAPYGTVMSCAVMKQFAFVHMRENAGALRAIEALHGHELRPGRALVVEMSRPRPLNTWKIFVGNVSAACTSQELRSLFERRGRVIECDVVKDYAFVHMEKEADAKAAIAQLNGKEVKGKRINVELSTKGQKKGPGLAVQSGDKTKKPGAGDTAFPGTGGFSATFDYQQAFGNSTGGFDGQARQPTPPFFGRDRSPLRRSPPRASYVAPLTAQPATYRAQPSVSLGAAYRAQPSASLGVGYRTQPMTAQAASYRAQPSVSLGAPYRGQLASPSSQSAAASSLGPYGGAQPSASALSSYGGQAAAASSLNSYGAQGSSLASYGNQPSSYGAQAASSYGVRAAASSYNTQGAASSLGSYGAQAASYGAQSAASSLAYGAQAASYNAQPSASYNAQSAPYAAQQAASYSSQPAAYVAQPATAAAYASQPAAYAAQATTPMAGSYGAQPVVQTQLNSYGAQASMGLSGSYGAQSAAAATGSYGAAAAYGAQPSATLAAPYRTQSSASLAASYAAQQHPQAAASYRGQPGNAYDGAGQPSAAYLSMSQGAVANANSTPPPYERTRLSPPRASYDDPYKKAVAMSKRYGSDRRLAELSDYRRLSESQLSFRRSPTKSSLDYRRLPDAHSDYARYSGSYNDYLRAAQMHSGYQRRM | 0.5955
RFX1 (protein, UniProt P22670 1-979, looked up) MHC class II regulatory …: MATQAYTELQAAPPPSQPPQAPPQAQPQPPPPPPPAAPQPPQPPTAAATPQPQYVTELQSPQPQAQPPGGQKQYVTELPAVPAPSQPTGAPTPSPAPQQYIVVTVSEGAMRASETVSEASPGSTASQTGVPTQVVQQVQGTQQRLLVQTSVQAKPGHVSPLQLTNIQVPQQALPTQRLVVQSAAPGSKGGQVSLTVHGTQQVHSPPEQSPVQANSSSSKTAGAPTGTVPQQLQVHGVQQSVPVTQERSVVQATPQAPKPGPVQPLTVQGLQPVHVAQEVQQLQQVPVPHVYSSQVQYVEGGDASYTASAIRSSTYSYPETPLYTQTASTSYYEAAGTATQVSTPATSQAVASSGSMPMYVSGSQVVASSTSTGAGASNSSGGGGSGGGGGGGGGGGGGGSGSTGGGGSGAGTYVIQGGYMLGSASQSYSHTTRASPATVQWLLDNYETAEGVSLPRSTLYCHYLLHCQEQKLEPVNAASFGKLIRSVFMGLRTRRLGTRGNSKYHYYGLRIKASSPLLRLMEDQQHMAMRGQPFSQKQRLKPIQKMEGMTNGVAVGQQPSTGLSDISAQVQQYQQFLDASRSLPDFTELDLQGKVLPEGVGPGDIKAFQVLYREHCEAIVDVMVNLQFTLVETLWKTFWRYNLSQPSEAPPLAVHDEAEKRLPKAILVLLSKFEPVLQWTKHCDNVLYQGLVEILIPDVLRPIPSALTQAIRNFAKSLESWLTHAMVNIPEEMLRVKVAAAGAFAQTLRRYTSLNHLAQAARAVLQNTAQINQMLSDLNRVDFANVQEQASWVCRCEDRVVQRLEQDFKVTLQQQNSLEQWAAWLDGVVSQVLKPYQGSAGFPKAAKLFLLKWSFYSSMVIRDLTLRSAASFGSFHLIRLLYDEYMYYLIEHRVAQAKGETPIAVMGEFANLATSLNPLDPDKDEEEEEEEESEDELPQDISLAAGGESPALGPETLEPPAKLARTDARGLFVQALPSS | -0.4637
REXO4 (protein, UniProt Q9GZR2 1-422, looked up) RNA exonuclease 4: MGKAKVPASKRAPSSPVAKPGPVKTLTRKKNKKKKRFWKSKAREVSKKPASGPGAVVRPPKAPEDFSQNWKALQEWLLKQKSQAPEKPLVISQMGSKKKPKIIQQNKKETSPQVKGEEMPAGKDQEASRGSVPSGSKMDRRAPVPRTKASGTEHNKKGTKERTNGDIVPERGDIEHKKRKAKEAAPAPPTEEDIWFDDVDPADIEAAIGPEAAKIARKQLGQSEGSVSLSLVKEQAFGGLTRALALDCEMVGVGPKGEESMAARVSIVNQYGKCVYDKYVKPTEPVTDYRTAVSGIRPENLKQGEELEVVQKEVAEMLKGRILVGHALHNDLKVLFLDHPKKKIRDTQKYKPFKSQVKSGRPSLRLLSEKILGLQVQQAEHCSIQDAQAAMRLYVMVKKEWESMARDRRPLLTAPDHCSDDA | -0.3654
RFC1 (protein, UniProt P35251 1-1148, looked up) Replication factor C subunit 1: MDIRKFFGVIPSGKKLVSETVKKNEKTKSDEETLKAKKGIKEIKVNSSRKEDDFKQKQPSKKKRIIYDSDSESEETLQVKNAKKPPEKLPVSSKPGKISRQDPVTYISETDEEDDFMCKKAASKSKENGRSTNSHLGTSNMKKNEENTKTKNKPLSPIKLTPTSVLDYFGTGSVQRSNKKMVASKRKELSQNTDESGLNDEAIAKQLQLDEDAELERQLHEDEEFARTLAMLDEEPKTKKARKDTEAGETFSSVQANLSKAEKHKYPHKVKTAQVSDERKSYSPRKQSKYESSKESQQHSKSSADKIGEVSSPKASSKLAIMKRKEESSYKEIEPVASKRKENAIKLKGETKTPKKTKSSPAKKESVSPEDSEKKRTNYQAYRSYLNREGPKALGSKEIPKGAENCLEGLIFVITGVLESIERDEAKSLIERYGGKVTGNVSKKTNYLVMGRDSGQSKSDKAAALGTKIIDEDGLLNLIRTMPGKKSKYEIAVETEMKKESKLERTPQKNVQGKRKISPSKKESESKKSRPTSKRDSLAKTIKKETDVFWKSLDFKEQVAEETSGDSKARNLADDSSENKVENLLWVDKYKPTSLKTIIGQQGDQSCANKLLRWLRNWQKSSSEDKKHAAKFGKFSGKDDGSSFKAALLSGPPGVGKTTTASLVCQELGYSYVELNASDTRSKSSLKAIVAESLNNTSIKGFYSNGAASSVSTKHALIMDEVDGMAGNEDRGGIQELIGLIKHTKIPIICMCNDRNHPKIRSLVHYCFDLRFQRPRVEQIKGAMMSIAFKEGLKIPPPAMNEIILGANQDIRQVLHNLSMWCARSKALTYDQAKADSHRAKKDIKMGPFDVARKVFAAGEETAHMSLVDKSDLFFHDYSIAPLFVQENYIHVKPVAAGGDMKKHLMLLSRAADSICDGDLVDSQIRSKQNWSLLPAQAIYASVLPGELMRGYMTQFPTFPSWLGKHSSTGKHDRIVQDLALHMSLRTYSSKRTVNMDYLSLLRDALVQPLTSQGVDGVQDVVALMDTYYLMKEDFENIMEISSWGGKPSPFSKLDPKVKAAFTRAYNKEAHLTPYSLQAIKASRHSTSPSLDSEYNEELNEDDSQSDEKDQDAIETDAMIKKKTKSSKPSKPEKDKEPRKGKGKSSKK | 2.906
RHOXF2 (protein, UniProt Q9BQY4 1-288, looked up) Rhox homeobox family member 2: MEPPDQCSQYMTSLLSPAVDDEKELQDMNAMVLSLTEEVKEEEEDAQPEPEQGTAAGEKLKSAGAQGGEEKDGGGEEKDGGGAGVPGHLWEGDLEGTSGSDGNVEDSDQSEKEPGQQYSRPQGAVGGLEPGNAQQPNVHAFTPLQLQELERIFQREQFPSEFLRRRLARSMNVTELAVQIWFENRRAKWRRHQRALMARNMLPFMAVGQPVMVTAAEAITAPLFISGMRDDYFWDHSHSSSLCFPMPPFPPPSLPLPLMLLPPMPPAGQAEFGPFPFVIVPSFTFPNV | 1.459

From paper PMC11574045, “A cofactor-induced repressive type of transcription factor condensation can be induced by synthetic peptides to suppress tumorigenesis” (The EMBO Journal, 2024)
